From patent US20220411523A1 (HEFEI HANKEMAB BIOTECHNOLOGY, published 2022)
Like-named read-outs stand apart in the source and are kept apart here.

Assays:
[1] = molecular target: T1, human 4-1BB (SEQ ID No.5), coated on the ELISA plate (human, UniProt Q07011 24-186, limits assumed); assay: ELISA, coated human 4-1BB
T1 construct: also called CD137

[2] = molecular target: T2, monkey 4-1BB (Cy4-1BB) (SEQ ID No.6), coated on the ELISA plate (monkey, UniProt Q07011 24-186 (human entry), limits assumed); assay: ELISA, coated monkey 4-1BB
T2 chain: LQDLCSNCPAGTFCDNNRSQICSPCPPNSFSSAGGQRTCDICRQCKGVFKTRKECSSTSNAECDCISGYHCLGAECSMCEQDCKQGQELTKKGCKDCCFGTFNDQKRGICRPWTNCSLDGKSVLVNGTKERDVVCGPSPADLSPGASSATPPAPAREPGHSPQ

[3] = molecular target: T3, monkey 4-1BB on the cell membrane surface of CHO-K1 cells (monkey, UniProt Q07011 24-255 (human entry)); assay: FACS, CHO-K1-cy4-1BB cells
T3 construct: also called CHO-K1-cy4-1BB
T3 chain: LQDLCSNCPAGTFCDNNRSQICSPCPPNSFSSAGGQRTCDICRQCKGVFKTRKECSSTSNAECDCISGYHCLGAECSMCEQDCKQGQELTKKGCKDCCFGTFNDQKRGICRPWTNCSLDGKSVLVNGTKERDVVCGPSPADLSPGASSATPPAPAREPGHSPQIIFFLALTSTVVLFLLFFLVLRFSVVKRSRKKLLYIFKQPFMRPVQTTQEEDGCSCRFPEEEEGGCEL

[4] = molecular target: T4, human 4-1BB full length, on the cell surface (human, UniProt Q07011 24-255); assay: FACS, CHO-K1-hu4-1BB cells
T4 construct: also called CHO-K1-hu4-1BB; WT (Human 4-1BB full length, Expi293 transient)

[5] = molecular target: T4, human 4-1BB full length, on the cell …; assay: FACS, CHO-K1-hu4-1BB cells; remark: listed apart in the source
[6] = molecular target: T5, h4-1BB-His antigen (Acro company, product number: Q07011-1) (human, UniProt Q07011 24-186); assay: BLI (Fortebio), h4-1BB-His
T5 construct: Q07011-1 is printed as a product number; not shown: His tag
T5 sequence (Q07011 24-186, one chain of several): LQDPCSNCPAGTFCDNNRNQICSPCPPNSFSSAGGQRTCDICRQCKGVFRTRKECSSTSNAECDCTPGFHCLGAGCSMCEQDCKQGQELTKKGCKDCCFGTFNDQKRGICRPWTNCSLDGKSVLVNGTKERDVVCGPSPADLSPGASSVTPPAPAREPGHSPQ

[7] = molecular target: T4, human 4-1BB full length, on the cell …; assay: FACS competition, CHO-K1-hu4-1BB; labelled Bio-4-1BBL 2 µg/ml fixed, competitor varied
[8] = molecular target: T4, human 4-1BB full length, on the cell …; assay: FACS competition, CHO-K1-hu4-1BB; labelled Bio-Hanke10F4 1.5 µg/ml fixed, competitor varied
[9] = molecular target: T4, human 4-1BB full length, on the cell …; assay: as above; remark: listed apart in the source
[10] = molecular target: T4, human 4-1BB full length, on the cell …; assay: FACS (MFI) on cells transiently transfected with human 4-1BB WT, antibody titrated from about 0.04 to 10 µg/ml
[11] = molecular target: T6, human 4-1BB N42R, on the cell surface (human, UniProt Q07011 24-255); assay: FACS (MFI) on cells transiently transfected with human 4-1BB N42R, antibody titrated from about 0.04 to 10 µg/ml
T6 construct: Point mutant of human 4-1BB on transiently transfected cells

[12] = molecular target: T7, human 4-1BB I132R, on the cell surface (human, UniProt Q07011 24-255); assay: FACS (MFI) on cells transiently transfected with human 4-1BB I132R, antibody titrated from about 0.04 to 10 µg/ml
T7 construct: Point mutant of human 4-1BB on transiently transfected cells

[13] = molecular target: T8, human 4-1BB M101R, on the cell surface (human, UniProt Q07011 24-255); assay: FACS (MFI) on cells transiently transfected with human 4-1BB M101R, antibody titrated from about 0.04 to 10 µg/ml
T8 construct: Point mutant of human 4-1BB on transiently transfected cells

T1 sequence (Q07011 24-186 limits assumed): as the sequence (Q07011 24-186, one chain of several) above

B1: Hanke10F4 (antibody, human IgG4 S228P, kappa, V domains shown)
VH: QVQLQESGPGLVKPSETLSITCTVSGSSLTSYGVHWVRQPPGKGLEGLGVIWPGGSTNYNSALMSRLTISKDNSKSQVSLKMSSLTAADTAMYYCARVTGTWYFDVWGQGTTVTVSS
VL: DIQMTQSPSSLSASLGDRVTISCSASQGISNYLNWYQQKPDGTVKLLIYYTSTLHSGVPSRFSGSGSGTDFTLTISSLQPEDVATYYCQQYSKLPWTFGGGTKLEIKR
notes: Heavy chain type IgG4, light chain kappa; Humanized from hybridoma antibody 37G10F4, transformed from scFvB60103; also called humanized anti-human 4-1BB antibody Hanke10F4; Hanke10F4 monoclonal antibody
B1 gave an EC50 [1] of 0.0186 µg/mL, an EC50 [2] of 0.0267 µg/mL and an EC50 [3] of 1.81 µg/mL. For the same binder, the EC50 [4] was 1.77 µg/mL, the EC50 [5] was 1.6 µg/mL and the Kd [6] was 13.9 nM. For the same binder, the koff [6] was 0.00241 s⁻¹, the kon [6] was 173000 M⁻¹ s⁻¹ and the “FACS signal of Bio-4-1BBL at (B:A) Ratio 0.03906” value [7] was 7700. For the same binder, the “FACS signal of Bio-4-1BBL at (B:A) Ratio 0.15625” value [7] was 7460, the “FACS signal of Bio-4-1BBL at (B:A) Ratio 0.625” value [7] was 6920 and the “FACS signal of Bio-4-1BBL at (B:A) Ratio 2.5” value [7] was 5860. For the same binder, the “FACS signal of Bio-4-1BBL at (B:A) Ratio 10” value [7] was 4310, the “FACS signal of Bio-4-1BBL at (B:A) Ratio 40” value [7] was 3510 and the “FACS signal of Bio-Hanke10F4 at (B:A) Ratio 0.058593” value [8] was 7260. The “FACS signal of Bio-Hanke10F4 at (B:A) Ratio 0.23437” value [8] was 6840, the “FACS signal of Bio-Hanke10F4 at (B:A) Ratio 0.9375” value [8] was 5000 and the “FACS signal of Bio-Hanke10F4 at (B:A) Ratio 3.75” value [8] was 1740. The “FACS signal of Bio-Hanke10F4 at (B:A) Ratio 15” value [8] was 635, the “FACS signal of Bio-Hanke10F4 at (B:A) Ratio 60” value [8] was 230 and the “FACS signal of Bio-Hanke10F4 at (B:A) Ratio 0.05859375” value [9] was 7260. The “FACS signal of Bio-Hanke10F4 at (B:A) Ratio 0.234375” value [9] was 6840, the “FACS signal of Bio-Hanke10F4 at (B:A) Ratio 0.9375” value [9] was 5000 and the “FACS signal of Bio-Hanke10F4 at (B:A) Ratio 3.75” value [9] was 1740. The “FACS signal of Bio-Hanke10F4 at (B:A) Ratio 15” value [9] was 635, the “FACS signal of Bio-Hanke10F4 at (B:A) Ratio 60” value [9] was 230 and the “EC50 (read off the curve)” value [10] was roughly 0.7 µg/mL. The “EC50 (read off the curve)” value [11] was roughly 0.7 µg/mL, the “EC50 (read off the curve)” value [12] was roughly 0.7 µg/mL and the “EC50 (read off the curve)” value [13] was roughly 0.7 µg/mL.

B2: HKB6 (antibody, V domains shown)
VH: QVQLKESGPGLVAPSQSLSITCTVSGFSLTTYDISWIRQPPGKGLEWLGVIWTGGGTNYNSTFMSRLSINKDNSKSQVFLKMNSLQTDDTAIYYCVRVDYWGQGTSVTVSS
VL: DVVMTQTPLSLPVSLGDQASISCRSSQSLVHSNGNTYLHWFLQKPGQSPKLLIYKVSNRFPGVPDRFSGSGSGTDFTLKISRVEAEDLGVYFCSQNTHVPWTFGGGTKLEIKR
Work on B2 yielded an EC50 [5] of 1.8 µg/mL.
